The source of these data is US20240270819A1 (ELANCO US, published 2024).

For experiment [1], the target named is canine FcRn with a poly-His tag / canine B2M heterodimer complex (canine). Kind of experiment: SPR (Biacore T200), pH 6.0; biotinylated FcRn/B2M immobilised, Fc as analyte. (In general: SPR reads the build-up and loss of mass on a sensor chip optically.)
For experiment [2], the target named is T1, canine IL4 (Sino Biological Inc, Cat #70021-DNAE-5) (canine, UniProt O77762 25-132).
T1 sequence (looked up): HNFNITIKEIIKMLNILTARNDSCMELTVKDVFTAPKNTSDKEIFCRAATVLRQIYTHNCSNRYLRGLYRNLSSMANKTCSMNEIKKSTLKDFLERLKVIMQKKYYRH
As to the kind of experiment: cell-based or functional assay.

The koff is the first-order rate constant of dissociation. A low value points to slow dissociation.

“variant canine IgG-B Fc polypeptide L(23)S”: the koff in experiment [1] was 0.241 s⁻¹.

B1: canine IL4RECD-IL13RECD-IgGB Fc (Fc fusion)
chain: SGSVKVLHEPSCFSDYISTSVCQWKMDHPTNCSAELRLSYQLDFMGSENHTCVPENREDSVCVCSMPIDDAVEADVYQLDLWAGQQLLWSGSFQPSKHVKPRTPGNLTVHPNISHTWLLMWTNPYPTENHLHSELTYMVNVSNDNDPEDFKVYNVTYMGPTLRLAASTLKSGASYSARVRAWAQTYNSTWSDWSPSTTWLNYYEPGGGSGTETQPPVTNLSVSVENLCTVIWTWDPPEGASPNCTLRYFSHFDNKQDKKIAPETHRSKEVPLNERICLQVGSQCSTNESDNPSILVEKCTPPPEGDPESAVTELQCVWHNLSYMKCTWLPGRNTSPDTNYTLYYWHSSLGKILQCEDIYREGQHIGCSFALTNLKDSSFEQHSVQIVVKDNAGKIRPSFNIVPLTSHVKPDPPHIKRLFFQNGNLYVQWKNPQNFYSRCLSYQVEVNNSQTETNDIFYVEEAKCQNSEFEGNLEGTICFMVPGVLPDTLNTVRIRVRTNKLCYEDDKLWSNWSQAMSIGENTDPTPKRENGRVPRPPDCPKCPAPEMLGGPSVFIFPPKPKDTLLIARTPEVTCVVVDLDPEDPEVQISWFVDGKQMQTAKTQPREEQFNGTYRVVSVLPIGHQDWLKGKQFTCKVNNKALPSPIERTISKARGQAHQPSVYVLPPSREELSKNTVSLTCLIKDFFPPDIDVEWQSNGQQEPESKYRTTPPQLDEDGSYFLYSKLSVDKSRWQRGDTFICAVMHEALHNHYTQESLSHSPGK
modifications: Biotinylated when captured on the tips in the sequential binding experiment; secreted from CHO cells, so glycosylated.
Take B1: the “TF1 cell proliferation assay (CellTiter-Glo luminescence), IC50 by 4 parameter logistic fit” value in experiment [2] amounted to 2 nM.
